Laboratory results reported in article PMC7810988, “Inositol pyrophosphates promote the interaction of SPX domains with the coiled-coil motif of PHR transcription factors to regulate plant phosphate homeostasis”.

Target: AtPHR1 MYB-CC (Arabidopsis thaliana, UniProt Q94CL7 222-358)
Experiment: GCI; 4 C, 300 mM NaCl; GCI at 4 C: AtPHR1 in 20 mM HEPES pH 7.5, 300 mM NaCl; OsPHR2 in 20 mM HEPES pH 7.9, 200 mM NaCl. EMSA: LI-COR Odyssey kit buffer without optional components, 50 nM oligo, 30 min at room temperature, 5% TBE gel in 0.5x TBE
Details: protein: recombinant; tags: His6 N-terminal, TEV-cleaved (untagged); chain copies: 2; label: 5'-biotin on strand 1; blunt

Sequence of AtPHR1 MYB-CC (Q94CL7 222-358): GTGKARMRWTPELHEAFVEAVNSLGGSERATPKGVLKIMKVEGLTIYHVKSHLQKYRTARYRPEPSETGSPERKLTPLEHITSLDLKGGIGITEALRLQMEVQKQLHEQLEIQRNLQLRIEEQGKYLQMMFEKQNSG

B1: pAtSPX1 biotin (dsDNA)
DNA 1: CAGAGAAAAAAGGATATTCTAATTAGAAACCTTAAGAATATTCTTTTTAATCCC
DNA 2: GGGATTAAAAAGAATATTCTTAAGGTTTCTAATTAGAATATCCTTTTTTCTCTG
  Kd: ~200 nM
